According to publication doi:10.1101/303537 (bioRxiv, 2018):
Where no end group is shown, it is not given here.

Key:
[1] = biological target: Retinoblastoma binding protein 4 (RBBP4) (human, UniProt Q09028 1-425); experiment: fluorescence polarisation
[2] = biological target: Retinoblastoma binding protein 7 (RBBP7) (human, UniProt Q16576 1-425); experiment: fluorescence polarisation
Sequence of Retinoblastoma binding protein 7 (RBBP7) (Q16576 whole entry): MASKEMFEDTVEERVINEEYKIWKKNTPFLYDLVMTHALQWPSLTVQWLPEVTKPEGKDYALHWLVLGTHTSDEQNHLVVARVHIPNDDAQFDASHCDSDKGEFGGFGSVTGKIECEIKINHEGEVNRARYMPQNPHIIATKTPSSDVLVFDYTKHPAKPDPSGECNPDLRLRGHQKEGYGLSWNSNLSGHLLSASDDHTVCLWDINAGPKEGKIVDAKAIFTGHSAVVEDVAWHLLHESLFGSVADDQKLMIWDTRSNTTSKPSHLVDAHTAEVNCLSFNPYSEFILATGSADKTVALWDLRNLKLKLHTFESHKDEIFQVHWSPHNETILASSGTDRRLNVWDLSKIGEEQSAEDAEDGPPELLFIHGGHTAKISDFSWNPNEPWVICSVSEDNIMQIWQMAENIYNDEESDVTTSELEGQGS

Sequence of Retinoblastoma binding protein 4 (RBBP4) (Q09028 whole entry): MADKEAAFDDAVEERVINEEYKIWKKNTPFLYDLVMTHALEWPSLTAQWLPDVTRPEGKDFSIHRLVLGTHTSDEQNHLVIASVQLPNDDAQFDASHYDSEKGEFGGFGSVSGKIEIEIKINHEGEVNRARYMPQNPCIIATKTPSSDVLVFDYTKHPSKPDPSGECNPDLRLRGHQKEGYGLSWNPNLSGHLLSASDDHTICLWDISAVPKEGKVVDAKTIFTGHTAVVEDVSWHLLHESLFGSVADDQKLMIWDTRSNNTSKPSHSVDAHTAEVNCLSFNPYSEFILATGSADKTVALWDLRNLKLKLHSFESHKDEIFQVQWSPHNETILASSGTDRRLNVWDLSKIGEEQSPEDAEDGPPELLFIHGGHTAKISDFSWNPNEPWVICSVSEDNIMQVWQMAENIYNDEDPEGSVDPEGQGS

Binder	Kd [1]	Kd [2]
LIAPIFLHRTLTYMSHR (also: FITC label (position not given here)) [FITC-labeled SUZ12 (105–121) peptide]	6400 ± 600 nM	–
FITC-labeled histone H4 (16–41) peptide (FITC label (position not given)) peptide: not shown	–	135 ± 12 nM

The remaining binders from weak to strong by Kd [1], led by results:

Kd [1]	Kd [2]	Binder
488 ± 245 nM	–	MSRRKQSNPRQIKRS (also: FITC label (position not given here)) [FITC-labeled FOG-1 (1–15) peptide]
201 ± 102 nM	–	KSKKKSRKGRPRKTN (also: FITC label (position not given here)) [FITC-labeled PHF6 (157–171) peptide]
